# In paper PMC10397247:
# B1: 4H1352-AA (peptide)
# chain: DENAALEAKIAALKAEIAALEAKNAALKG
# Columns and labels:
# Assay in all cases: two-hybrid library CCmax;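 further: natural log of median RNA to DNA barcode read ratio; higher means stronger binding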
# 4H3606-AA = biological target: T1, 4H3606-AA; conditions: mean of both orientations
# T1 chain: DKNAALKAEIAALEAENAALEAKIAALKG
# 4H3921-AA = biological target: T2, 4H3921-AA; conditions: mean of both orientations
# T2 chain: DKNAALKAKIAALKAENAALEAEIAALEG
# 4H906-AA = biological target: T3, 4H906-AA; conditions: mean of both orientations
# T3 chain: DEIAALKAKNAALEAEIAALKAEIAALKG
# 4H780-AA = biological target: T4, 4H780-AA; conditions: mean of both orientations
# T4 chain: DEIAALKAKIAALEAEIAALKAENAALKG
# Q8-AA = biological target: T5, Q8-AA; conditions: mean of both orientations
# T5 chain: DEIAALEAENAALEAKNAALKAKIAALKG
# 4H454-AA = biological target: T6, 4H454-AA; conditions: mean of both orientations
# T6 chain: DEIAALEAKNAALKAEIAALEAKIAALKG
# 4H335-AA = biological target: T7, 4H335-AA; conditions: mean of both orientations
# T7 chain: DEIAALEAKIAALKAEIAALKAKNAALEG
# 4H1401-AA = biological target: T8, 4H1401-AA; conditions: mean of both orientations
# T8 chain: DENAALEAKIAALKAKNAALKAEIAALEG
# 4H2949-AA = biological target: T9, 4H2949-AA; conditions: mean of both orientations
# T9 chain: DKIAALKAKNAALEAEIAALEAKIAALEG
# 4H2393-AA = biological target: T10, 4H2393-AA; conditions: mean of both orientations
# T10 chain: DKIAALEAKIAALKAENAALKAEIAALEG
# 4H3427-AA = biological target: T11, 4H3427-AA; conditions: mean of both orientations
# T11 chain: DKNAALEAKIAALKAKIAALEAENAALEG
# 4H2617-AA = biological target: T12, 4H2617-AA; conditions: mean of both orientations
# T12 chain: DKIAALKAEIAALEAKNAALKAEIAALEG
# 4H3655-AA = biological target: T13, 4H3655-AA; conditions: mean of both orientations
# T13 chain: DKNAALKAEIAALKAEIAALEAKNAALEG
# 4H605-AA = biological target: T14, 4H605-AA; conditions: mean of both orientations
# T14 chain: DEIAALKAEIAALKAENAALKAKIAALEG
# 4H3718-AA = biological target: T15, 4H3718-AA; conditions: mean of both orientations
# T15 chain: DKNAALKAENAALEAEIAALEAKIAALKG
# 4H1552-AA = biological target: T16, 4H1552-AA; conditions: mean of both orientations
# T16 chain: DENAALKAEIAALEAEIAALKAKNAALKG
# 4H1867-AA = biological target: T17, 4H1867-AA; conditions: mean of both orientations
# T17 chain: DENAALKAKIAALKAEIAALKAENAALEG
# 4H2754-AA = biological target: T18, 4H2754-AA; conditions: mean of both orientations
# T18 chain: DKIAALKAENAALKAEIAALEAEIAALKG
# 4H234-AA = biological target: T19, 4H234-AA; conditions: mean of both orientations
# T19 chain: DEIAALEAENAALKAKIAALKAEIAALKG
# 4H317-AA = biological target: T20, 4H317-AA; conditions: mean of both orientations
# T20 chain: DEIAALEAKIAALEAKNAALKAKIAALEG
# 4H881-AA = biological target: T21, 4H881-AA; conditions: mean of both orientations
# T21 chain: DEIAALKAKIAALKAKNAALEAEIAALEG
# 4H2354-AA = biological target: T22, 4H2354-AA; conditions: mean of both orientations
# T22 chain: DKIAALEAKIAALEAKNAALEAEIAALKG
# 4H1513-AA = biological target: T23, 4H1513-AA; conditions: mean of both orientations
# T23 chain: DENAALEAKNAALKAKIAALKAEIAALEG
# 4H48-AA = biological target: T24, 4H48-AA; conditions: mean of both orientations
# T24 chain: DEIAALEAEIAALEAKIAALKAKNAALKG
# 4H3627-AA = biological target: T25, 4H3627-AA; conditions: mean of both orientations
# T25 chain: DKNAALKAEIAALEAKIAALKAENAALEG
# 4H2944-AA = biological target: T26, 4H2944-AA; conditions: mean of both orientations
# T26 chain: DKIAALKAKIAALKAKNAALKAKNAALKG
# Q7-AA = biological target: T27, Q7-AA; conditions: mean of both orientations
# T27 chain: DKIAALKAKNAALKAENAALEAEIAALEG
# 4H1636-AA = biological target: T28, 4H1636-AA; conditions: mean of both orientations
# T28 chain: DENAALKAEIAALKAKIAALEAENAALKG
# 4H3112-AA = biological target: T29, 4H3112-AA; conditions: mean of both orientations
# T29 chain: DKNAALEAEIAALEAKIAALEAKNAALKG
# 4H342-AA = biological target: T30, 4H342-AA; conditions: mean of both orientations
# T30 chain: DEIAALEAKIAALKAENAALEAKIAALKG
# Q3-AA = biological target: T31, Q3-AA; conditions: mean of both orientations
# T31 chain: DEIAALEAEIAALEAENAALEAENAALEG
# 4H678-AA = biological target: T32, 4H678-AA
# T32 chain: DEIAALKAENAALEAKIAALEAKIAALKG
# 4H717-AA = biological target: T33, 4H717-AA; conditions: mean of both orientations
# T33 chain: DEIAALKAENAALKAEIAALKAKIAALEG
# 4H2883-AA = biological target: T34, 4H2883-AA; conditions: mean of both orientations
# T34 chain: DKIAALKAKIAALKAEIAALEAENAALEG
# 4H2837-AA = biological target: T35, 4H2837-AA; conditions: mean of both orientations
# T35 chain: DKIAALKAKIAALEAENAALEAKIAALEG
# 4H3343-AA = biological target: T36, 4H3343-AA; conditions: mean of both orientations
# T36 chain: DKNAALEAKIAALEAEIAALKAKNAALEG
# 4H2466-AA = biological target: T37, 4H2466-AA; conditions: mean of both orientations
# T37 chain: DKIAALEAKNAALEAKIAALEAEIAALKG
# 4H429-AA = biological target: T38, 4H429-AA; conditions: mean of both orientations
# T38 chain: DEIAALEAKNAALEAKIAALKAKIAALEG
# 4H2165-AA = biological target: T39, 4H2165-AA; conditions: mean of both orientations
# T39 chain: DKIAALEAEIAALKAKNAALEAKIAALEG
# 4H2190-AA = biological target: T40, 4H2190-AA; conditions: mean of both orientations
# T40 chain: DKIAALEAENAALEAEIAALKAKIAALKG
# 4H2078-AA = biological target: T41, 4H2078-AA; conditions: mean of both orientations
# T41 chain: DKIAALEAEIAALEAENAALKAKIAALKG
# 4H993-AA = biological target: T42, 4H993-AA; conditions: mean of both orientations
# T42 chain: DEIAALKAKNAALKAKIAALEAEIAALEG
# 4H2151-AA = biological target: T43, 4H2151-AA; conditions: mean of both orientations
# T43 chain: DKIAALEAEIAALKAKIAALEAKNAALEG
# 4H2277-AA = biological target: T44, 4H2277-AA; conditions: mean of both orientations
# T44 chain: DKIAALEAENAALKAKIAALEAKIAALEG
# 4H2505-AA = biological target: T45, 4H2505-AA; conditions: mean of both orientations
# T45 chain: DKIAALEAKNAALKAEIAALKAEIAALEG
# 4H566-AA = biological target: T46, 4H566-AA; conditions: mean of both orientations
# T46 chain: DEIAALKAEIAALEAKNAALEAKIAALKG
# 4H1352-AA = biological target: T47, 4H1352-AA
# T47 chain: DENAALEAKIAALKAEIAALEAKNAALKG
# 4H2575-AA = biological target: T48, 4H2575-AA; conditions: mean of both orientations
# T48 chain: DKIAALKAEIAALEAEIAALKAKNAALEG
# 4H2729-AA = biological target: T49, 4H2729-AA; conditions: mean of both orientations
# T49 chain: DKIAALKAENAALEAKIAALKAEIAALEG
# 4H2642-AA = biological target: T50, 4H2642-AA; conditions: mean of both orientations
# T50 chain: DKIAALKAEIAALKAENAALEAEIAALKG
# 4H3844-AA = biological target: T51, 4H3844-AA
# T51 chain: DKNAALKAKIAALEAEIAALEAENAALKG
# 4H794-AA = biological target: T52, 4H794-AA; conditions: mean of both orientations
# T52 chain: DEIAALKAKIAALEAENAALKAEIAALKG
binder,measurement,setting,value
B1,interaction score,4H3606-AA,-0.743
same,interaction score,4H3921-AA,-1.28
same,interaction score,4H906-AA,-1.39
same,interaction score,4H780-AA,-1.6
same,interaction score,Q8-AA,-1.22
same,interaction score,4H454-AA,1.39
same,interaction score,4H335-AA,0.334
same,interaction score,4H1401-AA,-1.64
same,interaction score,4H2949-AA,-0.999
same,interaction score,4H2393-AA,-1.01
same,interaction score,4H3427-AA,0.842
same,interaction score,4H2617-AA,0.197
same,interaction score,4H3655-AA,0.863
same,interaction score,4H605-AA,-1.5
same,interaction score,4H3718-AA,0.714
same,interaction score,4H1552-AA,1.47
same,interaction score,4H1867-AA,0.645
same,interaction score,4H2754-AA,-0.982
same,interaction score,4H234-AA,-1.3
same,interaction score,4H317-AA,-0.919
same,interaction score,4H881-AA,-0.885
same,interaction score,4H2354-AA,-1.74
same,interaction score,4H1513-AA,-0.469
same,interaction score,4H48-AA,-0.096
same,interaction score,4H3627-AA,2.33
same,interaction score,4H2944-AA,-0.752
same,interaction score,Q7-AA,-1.38
same,interaction score,4H1636-AA,-1.13
same,interaction score,4H3112-AA,1.11
same,interaction score,4H342-AA,1.49
same,interaction score,Q3-AA,-0.583
same,interaction score,4H678-AA,-0.653
same,interaction score,4H717-AA,-1.46
same,interaction score,4H2883-AA,0.183
same,interaction score,4H2837-AA,-0.514
same,interaction score,4H3343-AA,-0.188
same,interaction score,4H2466-AA,-1.34
same,interaction score,4H429-AA,-0.813
same,interaction score,4H2165-AA,-1.51
same,interaction score,4H2190-AA,-1.16
same,interaction score,4H2078-AA,-1.18
same,interaction score,4H993-AA,-0.427
same,interaction score,4H2151-AA,-0.65
same,interaction score,4H2277-AA,-1.27
same,interaction score,4H2505-AA,-0.788
same,interaction score,4H566-AA,-1.51
same,interaction score,4H1352-AA,1.38
same,interaction score,4H2575-AA,1.45
same,interaction score,4H2729-AA,0.0997
same,interaction score,4H2642-AA,-1.13
same,interaction score,4H3844-AA,1.93
same,interaction score,4H794-AA,-1.64
